# Reference: patent US20200317768A1 (published 2020)
# Positions count from the first letter of the chain named.
# T1: cynomolgus monkey FcγRIIIaS extracellular domain, His-tagged (cynomolgus monkey, UniProt Q8SPW2 21-206 at identity 1.00))
# T1 construct: also called cyno FcγRIIIaS; cynoFcγRIIIaS
# T1 chain: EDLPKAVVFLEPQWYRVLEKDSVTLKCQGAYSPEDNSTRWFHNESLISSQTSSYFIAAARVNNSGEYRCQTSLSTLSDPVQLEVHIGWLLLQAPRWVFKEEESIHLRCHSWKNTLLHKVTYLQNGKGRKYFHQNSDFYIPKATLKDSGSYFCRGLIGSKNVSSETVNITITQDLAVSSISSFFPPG
# T2: human FcγRIIaR extracellular domain, His-tagged (human, UniProt P12318 34-217)
# T2 construct: also called human FcγRIIa (type R); FcgRIIaR
# T2 chain: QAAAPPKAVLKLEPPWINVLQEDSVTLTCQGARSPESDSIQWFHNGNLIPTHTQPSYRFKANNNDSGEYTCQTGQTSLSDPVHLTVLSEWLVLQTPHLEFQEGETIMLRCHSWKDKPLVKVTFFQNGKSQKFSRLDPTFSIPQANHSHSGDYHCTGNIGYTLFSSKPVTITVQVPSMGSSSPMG
# T3: cynomolgus monkey FcγRIIa3 extracellular domain, His-tagged (cynomolgus monkey)
# T3 construct: also called cyno FcγRIIa3; cynoFcgRIIa3
# T3 chain: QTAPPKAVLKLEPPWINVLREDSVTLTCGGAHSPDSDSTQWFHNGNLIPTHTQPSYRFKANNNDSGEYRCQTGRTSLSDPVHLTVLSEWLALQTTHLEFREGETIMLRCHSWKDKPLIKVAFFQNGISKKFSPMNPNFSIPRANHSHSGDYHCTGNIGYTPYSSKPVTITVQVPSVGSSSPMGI
# T4: cynomolgus monkey FcγRIIa2 extracellular domain, His-tagged (cynomolgus monkey)
# T4 construct: also called cyno FcγRIIa2; cynoFcgRIIa2
# T4 chain: T3 chain with I127K, K130N, P133H, R142Q
# T5: cynomolgus monkey FcγRIIb extracellular domain, His-tagged (cynomolgus monkey)
# T5 construct: also called cyno FcγRIIb; cynoFcγRIIb
# T5 chain: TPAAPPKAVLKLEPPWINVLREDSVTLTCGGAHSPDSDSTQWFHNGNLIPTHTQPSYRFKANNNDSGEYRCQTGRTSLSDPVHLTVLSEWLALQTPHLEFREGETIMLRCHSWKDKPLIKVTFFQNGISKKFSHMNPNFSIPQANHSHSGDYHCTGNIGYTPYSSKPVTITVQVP
# T6: human FcγRIIb extracellular domain, His-tagged (human, UniProt P31994 43-217)
# T6 construct: also called FcgRIIb (human)
# T6 sequence: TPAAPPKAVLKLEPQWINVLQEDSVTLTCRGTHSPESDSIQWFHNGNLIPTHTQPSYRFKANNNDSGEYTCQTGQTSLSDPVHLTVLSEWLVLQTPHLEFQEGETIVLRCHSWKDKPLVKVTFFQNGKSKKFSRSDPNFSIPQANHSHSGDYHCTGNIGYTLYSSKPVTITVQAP
# T7: human FcγRIIaH extracellular domain, His-tagged (human, UniProt P12318 34-217)
# T7 construct: also called human FcγRIIa (type H); FcgRIIaH
# T7 sequence: T2 chain with R134H
# B1: M103205H795-MY196/M103202L889-SK1 (antibody, human IgG1, kappa)
# heavy: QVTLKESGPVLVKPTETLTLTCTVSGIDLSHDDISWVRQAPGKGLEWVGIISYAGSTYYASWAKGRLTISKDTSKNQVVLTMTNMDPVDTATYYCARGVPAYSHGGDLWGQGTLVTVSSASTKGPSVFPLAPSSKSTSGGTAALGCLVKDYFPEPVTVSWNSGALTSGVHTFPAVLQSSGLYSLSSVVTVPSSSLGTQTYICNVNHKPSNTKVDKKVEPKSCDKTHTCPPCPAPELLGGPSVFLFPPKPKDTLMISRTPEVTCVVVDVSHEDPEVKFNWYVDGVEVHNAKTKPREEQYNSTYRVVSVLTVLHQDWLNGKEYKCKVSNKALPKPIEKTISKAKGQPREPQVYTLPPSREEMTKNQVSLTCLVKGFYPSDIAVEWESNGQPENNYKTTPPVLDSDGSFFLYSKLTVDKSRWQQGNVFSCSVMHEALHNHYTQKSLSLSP
# light: DIVMTQSPATLSLSPGERATLSCTSSQSVYHANWLSWFQQKPGQPPKLLIYWASTLAYGVPSRFSGSGSGTDFTLTISSLQPEDAATYYCAGGYGGGRYAFGQGTKVEIKRTVAAPSVFIFPPSDEQLKSGTASVVCLLNNFYPREAKVQWKVDNALQSGNSQESVTEQDSKDSTYSLSSTLTLSKADYEKHKVYACEVTHQGLSSPVTKSFNRGEC
# notes: Substitution put into M103205H795-SG1
# How the values were obtained:
# Experiment in all cases: SPR; KD of SG1 / KD of variant;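 note: relative to parent M103205H795-SG1 carrying the SG1 human heavy chain constant region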
# [1] = biological target: T1, cynomolgus monkey FcγRIIIaS …
# [2] = biological target: T2, human FcγRIIaR extracellular domain, …
# [3] = biological target: T3, cynomolgus monkey FcγRIIa3 …
# [4] = biological target: T4, cynomolgus monkey FcγRIIa2 …
# [5] = biological target: T8, human FcγRIIIaV extracellular domain, His-tagged (human, UniProt P08637 17-208)
# T8 construct: also called FcgRIIIaV
# T8 sequence (P08637 17-208 F176V): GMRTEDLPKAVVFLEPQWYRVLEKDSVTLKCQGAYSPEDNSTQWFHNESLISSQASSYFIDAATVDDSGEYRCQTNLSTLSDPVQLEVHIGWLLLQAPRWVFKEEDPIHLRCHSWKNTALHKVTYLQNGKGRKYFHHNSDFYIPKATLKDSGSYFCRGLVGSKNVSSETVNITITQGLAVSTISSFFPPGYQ
# [6] = biological target: T5, cynomolgus monkey FcγRIIb extracellular …
# [7] = biological target: T6, human FcγRIIb extracellular domain, …
# [8] = biological target: T7, human FcγRIIaH extracellular domain, …
binder,measurement,setting,value
B1,KD fold (SG1 = 1),[1],0.6 fold
same,KD fold (SG1 = 1),[2],0.8 fold
same,KD fold (SG1 = 1),[3],0.7 fold
same,KD fold (SG1 = 1),[4],1.7 fold
same,KD fold (SG1 = 1),[5],0.37 fold
same,KD fold (SG1 = 1),[6],0.8 fold
same,KD fold (SG1 = 1),[7],0.7 fold
same,KD fold (SG1 = 1),[8],1.4 fold
